In the DeepSol protein solubility set:

Assay: soluble on expression in E. coli; label from the status in PepcDB or PDB records

Sequence	soluble on expression in E. coli
MAHHHHHHMLSPTPLLQRYRLFHPCRENIPLHMNPAKSMFPLINSNNLLAKPRSNWQDFSGRKEFDEDHPLPVVASRLNERTTQHKWSHWDQYLNPQITQSVRDLTPTPEYVGMRSGHNMIKMGWMKIGGSWKYSRGYNDRRRVFARGQWQERKMTPRFMLAPRVSPGGPRNRYEGKLVFSRLKLSKLLWAIDTGRLNPNEVITVYHLHEAGVVAEGEIVWPGFVLISSGVSRVPYPIHIELQNASAESIRLIEEAGGSFTGVYMTHDGLYQELHPEEYPVFPEQEFPERKGLEGLATNPAKRGWLVRWYEDEGKYAHPEAGRRYSHYVRPPTERDFPATVGEYEMVKHHQKWHLNQPGTGTLLPWHSYNTADLLKRSAGRV	not soluble
MSLANSKVYAIPTTCNSGIFVGRAENLDAIDIMKDPNYTGKVSIVGFDVANCSDNNSDDNHKNHNETAIGNGPTPKWHNSNYTSDFLNVAQQGKDTMISATLPNPVPSQEIGSVGQIAYGSQISDADFKELASVDIKNINQSSPYFVRNYGQMVSKLGDIIEKYHTELMDSNGNATIYLRPFHEMNSPWLWWGFKNQDDFKNLWIHLHNYLVNDRKFTWLKFCFAASAGDPSLDPAHVKGANSYYPGNNYVDTVALDGYSDDPSNDSGIKKQYAELTATGKPFGFAELGAKVDGDFVNVPNERTQQNVETRPFNYQKWSDAIQKYYSNAKYCIVFGGAYDPRNNLHGTSLFSNEGHHHHHH	soluble
DFEDVHIAEARVDVPSTWRDQIVNTNAVATETHPLKCAEVETQTGSKDNQGTQTDDAGGGRPPSPSKVQASGVADFMAKVEGMVAGELVKATEEHEVLEPFTRAADDEQEPATCIHYLSPFQQDAA	not soluble
MDKKTIYFICTGNSCRSQMAEGWGKEILGEGWNVYSAGIETHGVNPKAIEAMKEVDIDISNQTSDLIDNDILKQSDLVVTLCSDADNNCPILPPNVKKEHWGFDDPAGKEWSEFQRVRDEIKLAIEKFKLR	soluble
MAPALVQRRKKVAMIGSGMIGGTMGYLCALRELADVVLYDVVKGMPEGKALDLSHVTSVVDTNVSVRAEYSYEAALTGADCVIVTAGLTKVPGKPDSEWSRNDLLPFNSKIIREIGQNIKKYCPKTFIIVVTNPLDCMVKVMCEASGVPTNMICGMACMLDSGRFRRYVADALSVSPRDVQATVIGTHGDCMVPLVRYITVNGYPIQKFIKDGVVTEKQLEEIAEHTKVSGGEIVRFLGQGSAYYAPAASAVAMATSFLNDEKRVIPCSVYCNGEYGLKDMFIGLPAVIGGAGIERVIELELNEEEKKQFQKSVDDVMALNKAVAALQAPG	soluble
MGSDKIHHHHHHMCNYNQLFENIAELVMHHSPSGAEAEINQLLLQKFAALGVEVWSDRADNIIAKIPGKNSERAVAITAHKDEIGAIVKNIGDAGKVEVRKLGGAYPWVYGEGVVDLLGDNETISGILSFGSRHVSHESPQKVQQEDTAVKWENAWIETKRTTEELEIAGIRPGTRMVIGKHRKHPVKLQDHIASYTLDNKASVAILLALAQQLKQPAMDVYLVASAKEEVGAIGALFFTQNQQLDALIALEICPLSEEYPVKDSENPVLLIQDAYGIYDEGLNGELRQCAKQLNMPVQLTTLSGFGSDASIAMKFGHVGRAACLAFPTQNTHGYEIAHLGAISNCINLLKAFCETEF	not soluble
MSLELKYKIGFPSLYYPKISLADRIDAAAEKFGEKTAIISAEPKFPSEFPESMNFLEICEVTKKLASGISRKGVRKGEHVGVCIPNSIDYVMTIYALWRVAATPVPINPMYKSFELEHILNDSEATTLVVHSMLYENFKPVLEKTGVERVFVVGGEVNSLSEVMDSGSEDFENVKVNPEEDVALIPYTGGTTGMPKGVMLTHFNLAANALQLAVATGLSHMDTIVGCMPMFHSAEFGLVNLMVTVGNEYVVMGMFNQEMLAENIEKYKGTFSWAVPPALNVLVNTLESSNKTYDWSYLKVFATGAWPVAPALVEKLLKLAAEKCNNPRLRHNQIWGMTEACPMVTTNPPLRLDKSTTQGVPMSDIELKVISLEDGRELGVGESGEIVIRGPNIFKGYWKREKENQECWWYDEKGRKFFRTGDVGFIDEEGFLHFQDRVKEVIKYKGYTIAPFELEALLMKHEAVMDVAVIGKPDEEAGEVPKAFIVLKPEYRGKVDEEDIIEWVRERISGYKRVREVEFVEELPRTASGKLLRRLLREKEAEGHHHHHH	soluble
MSLEKQKLIKLIDVAAGRKKADLVLKNAKIVDVFQAKILTGDIAISDGYIAGIGGSYQGVVECNYTGKYVAPGFIEAHIHIESSYVSPEEFSRVFIPRGTTTILADPHEIVNVAGLKGLDYMVNAAKNAKMDIRYMMPPCVPATNFETSGADLYADDMEDALKTGEVDGLAELMNFPGVINADDKMIDEILMAKKYGARIDGHAPQVVGKDLNAYIAAGPANDHECSTLEEAEERLARGMYLLLREGSVTQDLRKLLPIVNTANSRRCLLSGDDVQAKTAINKGHLDNSIRICIDEGLNPITAIQMATLNPAEYCGLNDRGAIAPGRRADMVVFESLEDFAVEETYILGEKLSQGNEYLGEVNYYPIDSVESSMHVKDFTREKLQLHLNSDKVRAIGVVPGEVLTTEEHVTVKRDGDGNFVYNDQEDVTKIVVVERHHNTGNVNVNLLSGYGIKAGAIAISIGHDSHNIIATGTNDDDIFMAVNELIKQEGGAVVVKDEKVISRMELKIAGLMCNLPAEKMIAQQDALDEAVHEELGVPDNVNPVMTLSFMPLAVIPKLKITDKGLVDVEKNAFVSNELDEGHHHHHH	soluble
MSATTKELGNSLWDSLFGTPGVQLTDDDIQNMPYASQYMQLNGGPQLFVVLAFAEDGQQKWVTQDQATLVTQHGRLVKTLLGGDNLIEVNNLAADPLIKPAQIVDGASWTRTMGWTEYQQVRYATARSVFKWDGTDTVKVGSDETPVRVLDEEVSTDQARWHNRYWIDSEGQIRQSEQYLGADYFPVKTTLIKAAKQLEHHHHHH	soluble
MPVLSIISCRMFEDELAHIISSDKEMKQLIVVENKDSFGLLRKLRSDNCLPRTSPLDRVPFLLGNGHGSGFMTISKPLLILPFFRKIHEKMKIKAAQELTVVVNLLKLGLHDDIEILRSEVYKNIKEMTSFSDGILLFYCSCGGAFENLEENCLEFDCPLYWFKDGNEEVVVDCISAAIGGNAAYDELMYTCRGTGALYFTSMWASSWKEMREERKKSRNFNENYLKDPRYSRVVKLDTGLSYDPDFHKNVRDFARTFDMEIIEVKGSVELAEKSYRTAKKGVVQHTLKLEHHHHHH	not soluble
MNQQTYAFTLEMEVRDYECDMQGIVNNSVYQNYLEHARHVYLKTVGIDFKEFTERGINLVVVRAELDYKLPLQSGDRFRVGLNMVRQSPLRFAFYQDILRLPDMKPAVKARIIGTALNGRGRPEIPAELEALMQPGELEHHHHHH	soluble
GHHHHHHAIAENLYFQSNSHDGSNFSNKFSAHKDVVEDLLRKDTVGLVTFQDFRARREYLERCAVAEAACQNASRRAEELETKKKRVKRANLSRLSFGDSLEDQEENSVEFAKITRFASSKKANGVGFNTSGQDIVKEPDVFSPKEEGFFGKQNRKIGMDPGVDTSFLPDRDREQEERLERERLKQQWLSEQERVKNEEIDIIYSIWDGRGQRKLLSCKKGTTIAKFLSIVQQKVSTLKHCKVEDLMFIKEDMIIPHHLSFYDLISMKARGKNGSLFCFDVHEDIRIRNDASVEKDDSHAAKVVERRWYERNKHIYPASMWEVFDVSKNYGRVQKDFFGN	not soluble
GMKQPNYYQDVKQFHQTFHHPGADQPTAIPLDRGVKRATWTAEEAVVEFLHQSSQNETEFLAAIETFKAGLDQAVKKSLKETYPVTEVERLVGQGDALTDALYFIMGSFVEAGLEPGPLFEIVQQANMAKLGPDGQPIFRESDQKVMKPDGWLPPEPQLEAEVVRQMKEKA	soluble
MFRSSFCKNLENATSHLRLEPDWPSILLICDEINQKDVTPKNAFAAIKKKMNSPNPHSSCYSLLVLESIVKNCGAPVHEEVFTKENCEMFSSFLESTPHENVRQKMLELVQTWAYAFRSSDKYQAIKDTMTILKAKGHTFPELREADAMFTADTAPNWADGRVCHRCRVEFTFTNRKHHCRNCGQVFCGQCTAKQCPLPKYGIEKEVRVCDGCFAALQRG	soluble
MSLKEGKEFEYLFWVGSMGSYDNRSQKIAISFAKLLNHAGVSFAILGNKEKNSGDTPRRLGNEFLFQELAEKNISEFEKNDVKKIVTIDPHAYNLFKNEYPDFGFEGEVYHHTEVLAELVKNGKLRPQHPLHETITFHDSCYLGRYNEVYDPPREILKAIPGVQLVEMERSRETGMCCGAGGGLMWMEEETGNRINVARTEQALAVNPSVISSGCPYCLTMLGDGTKAKEAEDQVKTYDVVELLAQSVLGADLKMGEKQEGHHHHHH	not soluble
MIEGKTLVVNPFIGGSAKNITDEQYISILKKIKEKMPDLNIIITSYTTDEERTEKLCKDIGKDKIFAFSNGASILNTASIIDRADVYFGASTGPTHIAGALGKKIVAIYPHKKTQSPTRWGVLGNSNVRYIIPDENNPNEDYKNPYLEHHHHHH	not soluble
MEIFMNYKKSNGLNYILISDTALFQGCSPVETEKLLSGMQFFTKAYKKGVPVYHAGTPVSDIGIVLHGVVQIENNDLWGNKNIISLAQAGEVFAEAYACIPGEPMMVDVIALEDCEILFLNVPRLFQLASSGKGEYSVLIRNLTMISARKNLLLSRRILHTSSKKIRGRLLSYLSHQAELQGSRYIDIPLNRQQLADYLSLDRSALSKELAKMKQDGLLDYHKNSFVLKNV	not soluble
MSLAYQSEYALENEMMNQLEQLGYERVTIRDNKQLLDNFRTILNERHADKLEGNPLTDKEFQRLLTMIDGKSIFESARILRDKLPLRRDDESEIYLSFLDTKSWCKNKFQVTNQVSVEDTYKARYDVTILINGLPLVQVELKRRGIDINEAFNQVKRYRKQNYTGLFRYIQMFIISNGVETRYFSNNDSELLKSHMFYWSDKQNNRINTLQSFAESFMRPCQLAKMISEGHHHHHH	soluble
MKLAAMIKKMCPSDSELSIPAKNCYRMVILGSSKVGKTAIVSRFLTGRFEDAYTPTIEDFHRKFYSIRGEVYQLDILDTSGNHPFPAMRRLSILTGDVFILVFSLDNRDSFEEVQRLRQQILDTKSCLKNKTKENVDVPLVICGNKGDRDFYREVDQREIEQLVGDDPQRCAYFEISAKKNSSLDQMFRALFAMAKLPSEMSPDLHRKVSVQYCDVLHKKALRNKKLLRAGSGGGGGDPGDAFGIVAPFARRPSVHSDLMYIREKASAGSQAKDKERCVIS	soluble
MGSDKIHHHHHHDEIDTLVSKSDNAITFGTYVGKQTKALDKSAFAKDDKFGVSAYYGDGTFEANFMSNETISTTDGSTWTYTNTKYWPEGNPVSFVAYYPNLTTAPTITDGATAIPFTVKNDATEQVDFMWSTVKAATKDDKNGTAINGITNTTTDATSVPFVFQHGLSKISFKAKLGEASYSGVTIKVKSIKINGVKNKGTFTIPADLTAGTWATEDAATNDYTVSETNGKEIASTTADSIGESLLMIPQDMKGKTIEIAYDLVYTNPAQTISNTKAIVLDDKSNWVMNQQYTYTLTISLETVQLTASVGQFGANIDL	not soluble
MHINRTGSSQPSIELERFYSASQSLASSSVRELSPAEHANLQAITDYLKDHVFAAHKLPLSESAVDQDAVHAHNEQLDKIIDARARRLLDEGETPATIADTFAKAEKFDRMATTASITLRATPFAAASVLQYMQPAINKGDWLPMPLKPLTPFVSGALSGIMDQVGTTVMNRATGNLHYLSTPPEKLHDAMAASVKRHSPGVMRQAVDLGIAIQAYSARNAVRTVLAPALASRPAVQGAVDISVSAAGGLAANAGFGNRMHSVQARDHLRGGAFVLGIKDQEPKADLSEETDWLVAYKAIKSASYSGAALNAGKRVAGLPLDVATDGLKAVRSLVSATGLAQNGLALAGGFAGVGKLQEMATKNITDPATKAAVSQLTNMAASTGVFAAWTTAAVATDPAVKKAESFLQDTVKSAASSSTSYVADQTVKLAKAGIDASGEAIAATGASLLDTLRRRNAREPDIEEGGIAAGSPSAVPFQPGRS	not soluble
